Results reported in the nanobody polyreactivity screen of Harvey et al. (2022).

Assay: yeast display, Sf9 membrane polyspecificity reagent, FACS + sequencing; frameworks hold sequencing errors
Method in brief: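 Galactose induction of a Saccharomyces cerevisiae BJ5465 synthetic nanobody display library ran 36–48 hours. The cells were then stained for 1 hour at 4 °C with 10% biotinylated, detergent-solubilized Sf9 membrane reagent, pulled down on streptavidin microbeads and FACS-sorted into low and high (top ~1%) gates on expression and reagent-binding fluorescence. Labels for polyreactivity follow the gate of origin.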

Sequence | polyreactivity (PSR sort gate)
QVQLEESGGGVVQAGGSLSLSCAASVSTFIFNTMGWYRQATGKERELVASITGDGRTNYADSVKGRFTISRDNAKNTVYLQMNSLKPEDTAVYDCAADGYDQYPLWAPPGDYWGQGTQVTVSS | low polyreactivity
QVQLVESGGGLVQAGGILRLSCAASGSTFGFNAMGWYRQAPGKERELVASITSGDSTYYADSVKGRFTISRDNAKNTVYLQMNSLKPEDTAVYYCAKVGGGGQAGDNPILSDYWGQGTQVTVSS | low polyreactivity
QVQLVESGGGLVQAGGSLRLRCAASGSIFQPYAMGWYRQAPGKERELVAAITNGGSTYYADSVKGRFTISRDNATNTVYLQMNSLKPEDTAVYYCAADVQSSHEYDYWGQGTQVTVSS | low polyreactivity
QVQLVESGGGLVQAGCSILLSCAASGRIFDNYAMGWSRQAPGKERELVAASRYSDDATDYADSVKGRFTISRDNAKNTVYLQMNSLIPEDPAVYYCAADVKRYGWEYGYWGQGTQVTVSS | low polyreactivity
QVQLVESGGGLVQAGGSLRLSCAASGFIFGYYAMGWYRQAPGKERELVAAISKSGGRTRYADSVKGRFTISRDNAKNTVYLQMNSLKPEDTAVYYCATYDPARSTQGYDYWGQGTQVTVSS | high polyreactivity
QVQLVESGGGLVQAGGSLRLSCAASGSIFTFYAMGLYRQAPGKERELVAAISYRGGSTYYADSVKGRFTISRDNAKNTVYLQINSLKPEDTAVYYCAAARFPVFIQGYRMEYWGQGTQVTVSS | low polyreactivity
QVQLVESGGGLVQAGGSLRLSCAASGVTFESYDMGWYRQAHGKERELVAAITWDGGSTYYADSVKGRFTISRDNAKNTVYLQMNSLKPEDTAVYYCAADFGTISIDVYSWMDYWGQGTQVTVSS | low polyreactivity
QVQLVESCGGLVQAGGSLRLSCAASGSIIFPYALGWYRQAPGKERELVAAISWSGGRTYYADSVKGRFTISRDNAKNTVYLQMNSLKPEDTAVYYCAADGYPYFYGDFDYWGQGTQVNVSS | high polyreactivity
QVQLVESGGGLVQAGGSLRLSCAASGYTFGYNVMGWYRQAPGKERELVAVISSGGTTYYADSVKGRFTISRDNAKNTVYLQMNSLKPEDTAVYYCNKRSAYKYRTHYGYYYWGQGTQVTVSS | high polyreactivity
QFQLVESGGGLVQAGGSLRLSCAASGGTFPYNAMGWYRQAPGKERELVAAISSSGTSTYYADSVKGRFTISRDNAKNTVYLQMNSLKPEDTAVYYCNDYFKRYDYWGQGTQVTVSS | high polyreactivity
QVQLVESGGGLVQAGGSLRLSCAASGFTFQINTMGWYRQAPGKERELVAAINYSGGSTYYADSVKGRFTISRDNAKNTDYLQMNSLKPEDTAVYYCATDHYRNPWRWYRYGYWGQGTQVTVSS | low polyreactivity
QVQLVESGGGLVQAGGSLRLSCAASGNIFYYYAMGWYRQAPGKERELVAAISNGITYYADSVKGRFTISRDNAKNTVYLQMNSLKPEDTAVYYCAVDSDGNVRAVSGESLYDYWGQGTQVTVSS | low polyreactivity
QVQLVESGGGLVQAGGSLRLSCAASGLIFGRNAMGWYRQAPGKERELVAAITSGGSTYYADSVKGRFTISRDNAKNTVYLQMNSLKPEDTAVYYCFVDYYPYDYWGQGTQVTVSS | low polyreactivity
QVQLVESGGGLVQAGGSLRLSCAASGFTFRRYAMGWYRQAPGKERELVAVITTAGSTNYADSVKGRFTISRDNAKNTVYLQMNSLKPEDTAVYYCATDNGTRKRRYDYWGQGTQVTVSS | low polyreactivity
QVQLQESGGGLVQAGGDLRLICAASGNIFRDYIMGWYRQAPGKEREFVAGIDRGANTNYADSVIGRFTISRDNAKNSVFLQMNSRKPEVTAVYYCAVHNAIGPDFIYWGQGTQVTVSS | low polyreactivity
QVQLVESGGGLVQAAGSLRLSCAASGITFGLYTMGWYRQAPGKERELVAAISWSGGGTYYADSVKGRFTISRDNAKNTVYLQMNSLKPEDTAVYYCAAPVRGSYPYSVGVDYWGQGTQVTVSS | high polyreactivity
QVQHVESGGGLVQAGGSLRLSCAASGSIYYLNAMGWYRQGPGKEWELVAAINRGGSTSYADSVKGRFTISRDNAKNTVYLQMNSLKEADTAVYYCAADHGGVQYSVRYDYWGQGTQLTVSS | low polyreactivity
QVQLVESGGGLVQAGGSLRLSCAASGRTVEQNAMGLYRQAPGKERELVASITSVGSTDYADSVKGRFTISRDNAKNTVYLQMNSLKPEDTAVYYCAKTLGSQNYDFDYWGKGTQVTVSS | low polyreactivity
QLQLVESGGGLVQAGGSLRLSCAASVRTFNSYAMGRYRQAPGKERELVAGISTSGDNTYYADSVKGRFTISRDNAKNTVFLQMNSLKPEDSAVYYCATQFPPSTIYDYWGQGTQVTVSS | low polyreactivity
QVHLVESGGGLDQAGGSLRLSSAASGFTFQKYAMGWYRQAPGTERELVAAISSSGGRTYYADSLNGRFTISRDNAKITVYLQMNSLKPEDTAVYYCAVRGSYRGWYDYWGQGTQVTVSS | high polyreactivity
QVQLVESGGGLVQAGGSLRLSCAASGRIFSYYGMGWYRQAPGKERELVAAISTGGNTNYADSLKGRFTISRDNAKNTVYLQMNSLKPEDTAVYYCAAGFPYKFTYVCGYNHWGQGTQVTVSS | low polyreactivity
QVQLVESGGGLVQAGGSLRLSCAASGITFSNYSMGWYRQAPGKERELVAAISKRGGSTYYADSVKGRFTISRDNAKNTVYLQMNSLKPEDTAVYYCAAAGVRVYVRSGLDYWGQGTQVTVSS | high polyreactivity

Sequence | polyreactivity (PSR sort gate)
QVQLVESGGGLVQAGGSLRLSCAASGRIFSRYTMGWYRQAPGKERELVAAISSRGGSTYYADSVKVRFTISRDNAKNTVYLQMNSLKPEDTAVYYCNTPSYSGSSPYDHWGQGTQVTVSS | high polyreactivity
QVQLVESGGGIVQAGGSLRLSCAASGSNFVVNAMGWYRQAPGKERELVAAITQSGGSTFYADSVKGRFTISRDNAKNTVYLQMNSLIPEDTAVYYWGQGTQVTVSS | low polyreactivity
QVQLVESGGGLVQAGGSLRLSCAASGFTFWANAMGWYRQAPGKERELVAAISWSGGSTTYADSVKGRFTISRDNAKNTVYLQMNSLKPEETAVYYCATDYGHYVTYRLSDYWGQGTQVTVSS | low polyreactivity
QVQLVDSGGGLVQAGGSLRLSCAASGSTYGLYAMGWYRQATGKERELVAAITWRASSTYYADSVKGRFTISRDNAKNTVFLQMNSLKPEDTAVYYCAATWYSRFSRGDYDYWGQGTQVTVSS | high polyreactivity
QVQLVESGGGLVQAGGSLRLTCAASGITFYGNAMGWYRQAPGKERELVANTYYADSVKGRFTISRDNAKNTVYLQMNSLIAEDTAVYYCATRNARYRSQPPGYDYWGQGTQVTVSS | low polyreactivity
QVQLVESGGGLVQAGGSLRLSCAASGRIFDDYAMGWYRPAPGKERELVAAISSSGGSTYYADSLKGRFTISRDNAKNTVYLQINSLKPEDTAVYFCAASSFRSYYSGKYDYWGQGTQVTVSS | high polyreactivity
QVQLVESGGGLVQAGGSLRISCAASGSIFASKTMGWYRQAPGKERELVAGITKIGSSTYYADSVKGRFTISRDNAKNTVYLQMNSLKPEETAVYYCNAYLSPKQPLSPPEPTFEGGYWGQGTQVTVSS | low polyreactivity
QVQLVESGGGLVQAGGSLRLSCAASGRIFRYYDMGWYRPAPGTERELVAAITSDGSTKYADSVKGRFTISRDNAKNTVYLQMNSLKPEDTAVYYCNAEVLPTWYSPQLDYWGQGTQVTVSS | low polyreactivity
QVQLVESGGGLVQAGGSLRLSCAASGFTLAYYAMGWYRQAPGKERELVATISRRGGSTNYADSVKGRFTISRDNAKNTVYLQMNSLKPVDTAVYYCARTLYRGKSYHGHSKYDYWGQGTQVTVSS | high polyreactivity
QVQLVESGGGLVQAGGSLRLSCAASGSTFGFYAMGWYRQAPGTERELVAVISSGDSPYYADSVKGRFTISRDNAKNTVYLKMNSRKPEDTAVYYCAKDALVIDGGGGYDYWGQGTQVTVSS | low polyreactivity
QVQLVESGGGLVQAGGSLRLSCAASGRIFYRYAMGWYRQAPGKERELVAAITGSGGSTYYADSVKGRFTISRDNAKNTVYLQMNSLKPEDTAVYYCNAVYARYGSQGYEYWGHGTQVTVSS | high polyreactivity
QVQLVESGGGLVQAGGSLRLSCAASGFIFAIYAMGWYRQAPGKERELVAAITSSSSTYADSVKGRFTISRDNAKNTVYLQMNSLKPEDTAVYYCAADTYSYRYSNDYWGQGTQVTVSS | low polyreactivity
QVQLVESGGGLVQAGGSLRLSCAASGRTFYRYAMGWYRQAPGKERELVAAITTGGGSTYYADSVKGRFTISRDNAKNTVYLQMNSLKPEDTAVYYCNVYSSYTRRTLGDYWGQGTQVTVSS | high polyreactivity
QVQRVESGGGIVQAGGSLRLSCAASGFIFRRYAMGWYRQAPGKERELVAAISSSGGRTTYADSVKGRFTISRDNAKNTVYLQMNSLKPEDTAVYYFNADLWPGNHDGYWGQGTQVSVSS | low polyreactivity
QVQLVESVGGLVQAGGRLRLSCDASGFIFANYAMGWYRQATGKERELVAAITSGTGTNYADSVKGRFTISRDNAKNTVYLQMNSLKPEDTAVYYCAAYYTWLSEFGYWGQGTQVTVSS | low polyreactivity
QVQLVESCGGLIQAGGSLRLSCAASGSTFPYYAMGWYRQAPGKEREFVAAIRFSGSSTYYADSVKGRFTISRDNAMNTVFLQMNRLKPEDTAVYYCATDYWLPSYSYDYWGQGTQVTVSS | low polyreactivity
QVQLVESGGGLVQAGGSLRLSCAASGGIFSAYDMGWYRQAPGTERELVAAINSGGSTNYADSVKGRFTISRDNAKNTVYLQMNSLKPEDTAVYYCAAAKVSWFGLKYYYWGQGTQVTVSS | high polyreactivity
QVQLVESGGGLVQAGGSLRLSCAASGFTFTYNTMGWYRQAPGKERELVAAISALGTSTYYADSVKGRFTISRDNAKNTVYLQMNSLKPEDTEVYYCAAAYRIGSGYWGQGTQVTVSS | high polyreactivity
QVQLVESGGGLVQAGGSLRLSCAASGSIFSQYAMGWYRQAPGKERELVAAISSSGDSTNYADSVKGRFTISRDNAKNTVYLQMNSLKPEDTAVYYCNADTYWYRDSRYDYWGQGTQVTVSS | low polyreactivity
QVHLVESGGGLVQAGGSLRLSCAASGRIFGRNAMGWYRQAPGQERELVAAITSGSSTYYADSVKGRFTISRDNAKNTVYLQMNSLKPEDTAVYYCAARTIGYHYTGGYGYWGQGTQVTVSS | high polyreactivity
QVQLVESVGGLVQAGASLRLSCAASGSIFGYNPMGWYRQAPGKERELVAVINASGASTYYADSVKGRFTISRDNAKNTVYLQMNSLKPEDTAVYYCAKDPFPFPGGDYWGQGTQVTVSS | low polyreactivity
